Test results: patent publication US20130045191A1 (IMMATICS BIOTECHNOLOGIES, published 2013)

Molecular target: T1, HLA A*024 (human)
T1 construct: also called HLA A*024 alleles; HLA-A*24
Experiment: HLA immunoprecipitation from tumour tissue, LC-MS (Example 1)

Does LYQILQGIVF [CDC2-001] bind?
Result: binds
